Here are results for one protein from patent US20180066070.

B1: Sirtuin (silent mating type information regulation 2 homolog) 1 (protein)
chain: MADEAALALQPGGSPSAAGADREAASSPAGEPLRKRPRRDGPGLERSPGEPGGAAPEREVPAAARGCPGAAAAALWREAEAEAAAAGGEQEAQATAAAGEGDNGPGLQGPSREPPLADNLYDEDDDDEGEEEEEAAAAAIGYRDNLLFGDEIITNGFHSCESDEEDRASHASSSDWTPRPRIGPYTFVQQHLMIGTDPRTILKDLLPETIPPPELDDMTLWQIVINILSEPPKRKKRKDINTIEDAVKLLQECKKIIVLTGAGVSVSCGIPDFRSRDGIYARLAVDFPDLPDPQAMFDIEYFRKDPRPFFKFAKEIYPGQFQPSLCHKFIALSDKEGKLLRNYTQNIDTLEQVAGIQRIIQCHGSFATASCLICKYKVDCEAVRGDIFNQVVPRCPRCPADEPLAIMKPEIVFFGENLPEQFHRAMKYDKDEVDLLIVIGSSLKVRPVALIPSSIPHEVPQILINREPLPHLHFDVELLGDCDVIINELCHRLGGEYAKLCCNPVKLSEITEKPPRTQKELAYLSELPPTPLHVSEDSSSPERTSPPDSSVIVTLLDQAAKSNDDLDVSESKGCMEEKPQEVQTSRNVESIAEQMENPDLKNVGSSTGEKNERTSVAGTVRKCWPNRVAKEQISRRLDGNQYLFLPPNRYIFHGAEVYSDSEDDVLSSSSCGSNSDSGTCQSPSLEEPMEDESEIEEFYNGLEDEPDVPERAGGAGFGTDGDDQEAINEAISVKQEVTDMNYPSNKS
For B1, the “deacetylation in vitro (SDS-PAGE, blots for acetyl-lysine and PCSK9)” value with Recombinant PCSK9 was “PCSK9 is deacetylated by SIRT1 in vitro”. In addition, in the data set with acetyl-PCSK9-AMC peptide, the “increase in fluorescence caused by deacetylation of fluorogenic PCSK9 peptide” value is reported as “SIRT1 deacetylates fluorogenic PCSK9 peptide”.
